The target in data set [1] is T1, HSPC117 within the human tRNA ligase complex (Homo sapiens, UniProt Q9Y3I0).
T1 construct: FLAG; made in house
The data set can be described thus: Guanylation of affinity purified FLAG-HSPC117 with [α-32P]GTP. The data set is classed as biochemical. Particulars: SDS PAGE, phosphorimaging. As to the method: FIG. 13: Guanylation of HSPC117 within the human tRNA ligase complex by Archease. A. Affinity purified FLAG-HSPC117 was incubated with wild-type or mutant versions of Archease or buffer as a control in the presence of [α-32P]GTP or [α-32P]ATP, full circles indicate inclusion, empty circles indicate omission from reaction mixtures. Reaction mixtures were resolved by SDS PAGE and radiolabeled protein species visualized by phosphorimaging. B. Equal loading was confirmed by Coomassie staining.
Reaction mixtures were resolved by SDS PAGE and radiolabeled protein species visualized by phosphorimaging or by Coomassie staining (FIGS. 13 A and B).

Data set [2] has as its target T2, human tRNA ligase complex (Homo sapiens, UniProt Q9Y3I0).
T2 construct: FLAG; made in house; Archease expressed in E. coli
The data set is described as follows: RNA ligation assay with affinity-purified tRNA ligase complex and added recombinant Archease. The data set is classed as biochemical. Particulars: pre-cleaved tRNA substrates or linear intron, time course. As to the method:
FIG. 3: Archease boosts RNA ligation by the human tRNA ligase complex. A) Time-course ligation assay with affinity-purified tRNA ligase complex and pre-cleaved tRNA substrates in absence or presence of recombinant Archease. B) Time course ligation assay with affinity purified tRNA ligase complex and isolated linear introns (2.5 μM) in absence or presence of recombinant Archease (8.5 μM) expressed in E. coli. The signals corresponding to the concatemerized intron were quantified and plotted as fraction of the total signal detectable in the respective lane.
FIG. 6: The point mutations D39A and K144A abolish the function of Archease in RNA ligation. A) Time-course of ligation activity of FLAG-HSPC117 complexes upon addition of recombinant wild-type or mutant Archease (15 μM). B) SDS-PAGE analysis of purified recombinant wild-type and mutant Archease.
Addition of Archaease influences ligase activity of affinity purified human tRNA ligase complexes.
To study the function of Archease the available NMR structure from the euryarchaeote Methanothermobacter thermautotrophicus (Yee et al., 2002) (36% identical to human protein) was used and aspartic acid (D) 39 and lysine (K) 144, both extremely conserved residues, were replaced by alanines (D39A; K144A) (FIG. 5). Wild-type and mutant versions of Archease were over-expressed in […] and tRNA ligase activity was measured. […] FIG. 6B confirms equal concentrations of recombinant proteins added to the reactions.

T2 sequence (Q9Y3I0 whole entry): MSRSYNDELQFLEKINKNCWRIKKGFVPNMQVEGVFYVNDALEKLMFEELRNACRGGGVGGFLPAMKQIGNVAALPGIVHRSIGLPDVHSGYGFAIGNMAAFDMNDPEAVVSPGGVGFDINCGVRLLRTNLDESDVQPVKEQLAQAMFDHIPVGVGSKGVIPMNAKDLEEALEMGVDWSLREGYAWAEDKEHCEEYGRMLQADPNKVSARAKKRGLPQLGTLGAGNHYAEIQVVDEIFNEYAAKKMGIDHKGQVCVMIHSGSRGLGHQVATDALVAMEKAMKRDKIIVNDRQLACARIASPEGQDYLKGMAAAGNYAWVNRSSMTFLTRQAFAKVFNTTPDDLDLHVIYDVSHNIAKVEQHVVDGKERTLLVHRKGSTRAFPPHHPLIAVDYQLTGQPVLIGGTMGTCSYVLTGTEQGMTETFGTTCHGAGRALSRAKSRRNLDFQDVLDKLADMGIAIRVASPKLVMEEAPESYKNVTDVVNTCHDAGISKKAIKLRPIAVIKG
T2 sequence (Q92499 whole entry partner): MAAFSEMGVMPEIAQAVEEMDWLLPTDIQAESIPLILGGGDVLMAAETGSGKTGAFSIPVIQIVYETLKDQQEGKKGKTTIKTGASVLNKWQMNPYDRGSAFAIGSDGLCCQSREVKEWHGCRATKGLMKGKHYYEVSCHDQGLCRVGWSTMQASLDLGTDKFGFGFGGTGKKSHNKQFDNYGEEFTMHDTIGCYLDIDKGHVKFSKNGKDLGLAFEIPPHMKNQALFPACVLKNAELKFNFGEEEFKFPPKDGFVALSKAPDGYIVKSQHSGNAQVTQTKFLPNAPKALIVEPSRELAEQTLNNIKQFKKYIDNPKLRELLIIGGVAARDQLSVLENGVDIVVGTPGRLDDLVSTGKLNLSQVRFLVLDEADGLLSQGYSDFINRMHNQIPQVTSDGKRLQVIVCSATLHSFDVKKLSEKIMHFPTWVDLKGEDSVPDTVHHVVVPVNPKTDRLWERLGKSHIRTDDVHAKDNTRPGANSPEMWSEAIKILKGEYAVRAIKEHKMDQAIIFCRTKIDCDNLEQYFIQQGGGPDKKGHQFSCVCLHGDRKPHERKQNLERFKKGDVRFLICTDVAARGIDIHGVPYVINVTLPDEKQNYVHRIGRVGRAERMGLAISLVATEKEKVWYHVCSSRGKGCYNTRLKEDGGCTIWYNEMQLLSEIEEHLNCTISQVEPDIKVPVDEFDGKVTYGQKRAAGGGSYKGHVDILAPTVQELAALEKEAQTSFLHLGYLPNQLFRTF
T2 sequence (Q52LJ0 whole entry partner): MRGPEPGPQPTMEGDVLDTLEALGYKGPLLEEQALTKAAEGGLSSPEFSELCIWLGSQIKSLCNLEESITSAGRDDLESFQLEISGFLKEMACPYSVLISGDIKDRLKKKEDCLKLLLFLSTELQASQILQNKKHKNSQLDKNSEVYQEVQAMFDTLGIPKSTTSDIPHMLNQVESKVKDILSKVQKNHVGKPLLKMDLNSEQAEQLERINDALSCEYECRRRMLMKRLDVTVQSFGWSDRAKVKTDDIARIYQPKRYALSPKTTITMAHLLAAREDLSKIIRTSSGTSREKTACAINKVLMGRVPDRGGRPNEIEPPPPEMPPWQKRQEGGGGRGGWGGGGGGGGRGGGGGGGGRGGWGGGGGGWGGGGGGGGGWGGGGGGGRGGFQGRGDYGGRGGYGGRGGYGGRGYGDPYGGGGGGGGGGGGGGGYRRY
T2 sequence (Q9BVC5 whole entry partner): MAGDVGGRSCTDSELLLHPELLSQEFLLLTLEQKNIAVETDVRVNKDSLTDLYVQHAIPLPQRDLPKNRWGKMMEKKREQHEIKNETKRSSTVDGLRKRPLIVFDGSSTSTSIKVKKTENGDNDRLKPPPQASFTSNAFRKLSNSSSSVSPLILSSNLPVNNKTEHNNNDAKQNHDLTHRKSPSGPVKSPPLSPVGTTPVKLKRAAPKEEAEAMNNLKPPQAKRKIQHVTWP
T2 sequence (Q9Y224 whole entry partner): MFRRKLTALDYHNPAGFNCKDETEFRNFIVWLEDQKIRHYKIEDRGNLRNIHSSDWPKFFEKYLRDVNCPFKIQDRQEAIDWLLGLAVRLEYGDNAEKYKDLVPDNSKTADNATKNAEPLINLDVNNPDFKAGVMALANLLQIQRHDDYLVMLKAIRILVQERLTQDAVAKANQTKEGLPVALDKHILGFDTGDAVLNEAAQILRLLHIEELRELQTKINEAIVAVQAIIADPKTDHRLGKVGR
T1 sequence (Q9Y3I0 whole entry): as the sequence (Q9Y3I0 whole entry) above
T1 sequence (Q92499 whole entry partner): as the sequence (Q92499 whole entry partner) above
T1 sequence (Q52LJ0 whole entry partner): as the sequence (Q52LJ0 whole entry partner) above
T1 sequence (Q9BVC5 whole entry partner): as the sequence (Q9BVC5 whole entry partner) above
T1 sequence (Q9Y224 whole entry partner): as the sequence (Q9Y224 whole entry partner) above

B1: wild-type Archease: Homo sapiens Archease protein (SEQ ID NO: 28), recombinant, enhances RNA ligase activity of HSPC117 (protein, listed as Homo sapiens)
chain: MAQEEEDVRDYNLTEEQKAIKAKYPPVNRKYEYLDHTADVQLHAWGDTLEEAFEQCAMAMFGYMTDTGTVEPLQTVEVETQGDDLQSLLFHFLDEWLYKFSADEFFIPREVKVLSIDQRNFKLRSIGWGEEFSLSKHPQGTEVKAITYSAMQVYNEENPEVFVIIDI
Take B1: the “Guanylation of FLAG-HSPC117” value in data set [1] was “only detectable in the presence of wild-type”. Also, the “RNA ligase activity of affinity purified tRNA ligase complex upon addition of recombinant Archease” value in data set [2] is reported as “led to an increase in RNA ligase activity”; in data set [2] (listed as recombinant Archease) it was “boosts ligation activity to a great extent”.
